# Experimental data taken from the supplement of paper PMC10065799, “High-throughput profiling of sequence recognition by tyrosine kinases and SH2 domains using bacterial peptide display” (eLife, 2023).
# Biological target: Hck (UniProt P08631)
# Assay: phosphorylation enrichment, bacterial display (enrichment ratio); higher = better substrate or ligand; peptides without Tyr show the background
# 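Further: 11-residue human phosphosite peptides and single-mutation variants displayed on the E. coli surface, counted by deep sequencing, each peptide's frequency after selection divided by its frequency in the unselected input library; frequency after pTyr selection over input frequency; kinase dosed for 20-30% of maximal phosphorylation in three min.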
# Chain of Hck (P08631 whole entry, looked up): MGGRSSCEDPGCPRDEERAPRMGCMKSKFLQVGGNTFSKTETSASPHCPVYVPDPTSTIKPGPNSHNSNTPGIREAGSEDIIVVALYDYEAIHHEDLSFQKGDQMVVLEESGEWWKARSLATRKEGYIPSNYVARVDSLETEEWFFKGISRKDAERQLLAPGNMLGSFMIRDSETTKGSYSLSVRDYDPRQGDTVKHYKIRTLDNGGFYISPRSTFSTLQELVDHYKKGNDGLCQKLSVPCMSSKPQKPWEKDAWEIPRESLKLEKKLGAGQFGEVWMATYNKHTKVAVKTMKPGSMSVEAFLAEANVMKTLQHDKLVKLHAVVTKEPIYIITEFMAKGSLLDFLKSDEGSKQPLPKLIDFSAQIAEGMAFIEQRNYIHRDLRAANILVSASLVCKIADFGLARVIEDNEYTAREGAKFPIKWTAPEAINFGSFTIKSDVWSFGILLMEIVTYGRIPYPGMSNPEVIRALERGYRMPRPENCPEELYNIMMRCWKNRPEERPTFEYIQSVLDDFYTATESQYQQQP
row,Sequence,phosphorylation enrichment
1,VEKEKYVSYIS [JMJD1C_Y596_M591V],0.434
2,FQCKHYACIRQ [TIMP3_Y182_S179C_YF],0.445
3,SDPIIYTLENI [ADGRE1_Y534],1.49
4,KANEFYPVVLI [ADAMTS18_Y765_YF],0.412
5,PAVGIYNGNIN [CDCP1_Y707_D709G],1.55
6,KVGPGYLGSGG [RET_Y826],0.315
7,KYLENYYDLEK [MMP3_Y41_K45E],1.83
8,TENAGYFFRVS,0.457
9,EVESPYEVHDY [GIGYF2_Y1168],1.13
10,IVAREYFSKAD [CAMK2B_Y107_E110K_YF],0.427
11,QQLQGYIPSNY [FRK_Y99],0.633
12,NFFDLYGGEKF [PTPN11_Y66_D61N_YF],3.54
13,LLPNAYIFVVQ [L1CAM_Y418_A415P_YF],0.73
14,GRRNTCYASIA [ACADM_Y352_Y352C],0.477
15,WIPNQYPIISE [NOG_Y222_I220N],0.465
16,TISPYYRQSLF [CRYAA_Y48],0.433
17,EILLSDLRTGF [TGM1_Y365_Y365D_YF],0.478

row,Sequence,phosphorylation enrichment
1,PLCPDYQEPSR [DDR2_Y481_R478C],1.01
2,VLSIDYYFPPQ [AR_Y552_P549S],0.881
3,FSKTQYNQVPR [CXADR_Y318_S323R_YF],0.457
4,RAIELCNDKEK [OTULIN_Y244_Y244C],0.381
5,FFVVRYCWLRR [MPZ_Y181_YF],0.459
6,NLNGKCNKPRA [ANGPTL3_Y417_Y417C],0.347
7,IPGGIYNADLN [CST4_Y35_D36N],1.27
8,CTTIHYNYLCN [TP53_Y234_M237L],0.536
9,TYGQVYKGRHV [TNIK_Y40],6.44
10,SIKDKYVTALY [KCNH2_Y611],0.785
11,TPRNTYKMTSV [MKI67_Y849_L854V],0.458
12,ATVRPYRPFII [LRP5_Y1528_A1525V_YF],0.462
13,TPRNTYKMTSL [MKI67_Y849],0.395
14,QDGFSYPSRQM [LDLR_Y847_YF],0.522
15,RRESPYGGGGG [FUS_Y526_R524S],0.596
16,DLDLTSIFPNI [PTEN_Y27_Y27S_YF],0.497

# Biological target: Jak2 (UniProt O60674)
# Sequence (O60674 whole entry, looked up): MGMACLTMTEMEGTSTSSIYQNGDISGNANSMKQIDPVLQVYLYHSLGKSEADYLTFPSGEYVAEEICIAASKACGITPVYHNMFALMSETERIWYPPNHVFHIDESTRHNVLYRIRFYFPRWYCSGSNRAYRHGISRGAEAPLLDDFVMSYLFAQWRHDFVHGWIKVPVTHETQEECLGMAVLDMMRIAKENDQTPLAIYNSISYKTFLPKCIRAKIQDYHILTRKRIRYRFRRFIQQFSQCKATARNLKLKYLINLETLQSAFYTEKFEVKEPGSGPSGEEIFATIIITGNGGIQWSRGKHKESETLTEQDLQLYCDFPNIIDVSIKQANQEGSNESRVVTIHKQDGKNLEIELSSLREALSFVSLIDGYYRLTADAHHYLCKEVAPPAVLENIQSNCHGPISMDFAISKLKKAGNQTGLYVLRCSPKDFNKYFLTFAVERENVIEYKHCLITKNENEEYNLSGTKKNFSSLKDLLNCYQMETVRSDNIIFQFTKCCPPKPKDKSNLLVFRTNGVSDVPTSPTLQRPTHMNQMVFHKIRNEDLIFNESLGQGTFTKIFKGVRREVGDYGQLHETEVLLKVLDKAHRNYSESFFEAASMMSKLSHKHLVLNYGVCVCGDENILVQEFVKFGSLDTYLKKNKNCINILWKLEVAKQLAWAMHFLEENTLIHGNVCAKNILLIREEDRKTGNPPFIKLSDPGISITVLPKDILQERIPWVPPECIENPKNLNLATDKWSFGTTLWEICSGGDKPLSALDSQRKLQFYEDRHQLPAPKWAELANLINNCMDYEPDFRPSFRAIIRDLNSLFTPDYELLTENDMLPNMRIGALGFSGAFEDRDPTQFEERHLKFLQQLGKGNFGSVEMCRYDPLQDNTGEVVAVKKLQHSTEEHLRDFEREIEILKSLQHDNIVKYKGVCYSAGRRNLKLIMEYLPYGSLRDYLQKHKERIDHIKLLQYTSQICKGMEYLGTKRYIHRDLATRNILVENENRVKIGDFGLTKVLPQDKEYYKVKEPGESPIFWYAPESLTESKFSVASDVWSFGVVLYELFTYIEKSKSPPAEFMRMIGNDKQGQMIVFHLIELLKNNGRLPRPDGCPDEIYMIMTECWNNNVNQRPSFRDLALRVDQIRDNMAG
# Assay: as above
row,Sequence,phosphorylation enrichment
1,VEKEKYVSYIS [JMJD1C_Y596_M591V],0.866
2,FQCKHYACIRQ [TIMP3_Y182_S179C_YF],0.508
3,SDPIIYTLENI [ADGRE1_Y534],0.948
4,KANEFYPVVLI [ADAMTS18_Y765_YF],1.06
5,PAVGIYNGNIN [CDCP1_Y707_D709G],1.15
6,KVGPGYLGSGG [RET_Y826],0.457
7,KYLENYYDLEK [MMP3_Y41_K45E],1.2
8,TENAGYFFRVS,1.45
9,EVESPYEVHDY [GIGYF2_Y1168],1.03
10,IVAREYFSKAD [CAMK2B_Y107_E110K_YF],0.542
11,QQLQGYIPSNY [FRK_Y99],0.647
12,NFFDLYGGEKF [PTPN11_Y66_D61N_YF],0.826
13,LLPNAYIFVVQ [L1CAM_Y418_A415P_YF],1.5
14,GRRNTCYASIA [ACADM_Y352_Y352C],0.48
15,WIPNQYPIISE [NOG_Y222_I220N],0.862
16,TISPYYRQSLF [CRYAA_Y48],0.745
17,EILLSDLRTGF [TGM1_Y365_Y365D_YF],0.69

row,Sequence,phosphorylation enrichment
1,PLCPDYQEPSR [DDR2_Y481_R478C],1.23
2,VLSIDYYFPPQ [AR_Y552_P549S],6.81
3,FSKTQYNQVPR [CXADR_Y318_S323R_YF],0.491
4,RAIELCNDKEK [OTULIN_Y244_Y244C],0.752
5,FFVVRYCWLRR [MPZ_Y181_YF],0.597
6,NLNGKCNKPRA [ANGPTL3_Y417_Y417C],0.435
7,IPGGIYNADLN [CST4_Y35_D36N],0.746
8,CTTIHYNYLCN [TP53_Y234_M237L],0.655
9,TYGQVYKGRHV [TNIK_Y40],0.482
10,SIKDKYVTALY [KCNH2_Y611],0.597
11,TPRNTYKMTSV [MKI67_Y849_L854V],0.513
12,ATVRPYRPFII [LRP5_Y1528_A1525V_YF],0.644
13,TPRNTYKMTSL [MKI67_Y849],0.477
14,QDGFSYPSRQM [LDLR_Y847_YF],0.454
15,RRESPYGGGGG [FUS_Y526_R524S],0.74
16,DLDLTSIFPNI [PTEN_Y27_Y27S_YF],0.726

# Biological target: MERTK (UniProt Q12866)
# Sequence (Q12866 whole entry, looked up): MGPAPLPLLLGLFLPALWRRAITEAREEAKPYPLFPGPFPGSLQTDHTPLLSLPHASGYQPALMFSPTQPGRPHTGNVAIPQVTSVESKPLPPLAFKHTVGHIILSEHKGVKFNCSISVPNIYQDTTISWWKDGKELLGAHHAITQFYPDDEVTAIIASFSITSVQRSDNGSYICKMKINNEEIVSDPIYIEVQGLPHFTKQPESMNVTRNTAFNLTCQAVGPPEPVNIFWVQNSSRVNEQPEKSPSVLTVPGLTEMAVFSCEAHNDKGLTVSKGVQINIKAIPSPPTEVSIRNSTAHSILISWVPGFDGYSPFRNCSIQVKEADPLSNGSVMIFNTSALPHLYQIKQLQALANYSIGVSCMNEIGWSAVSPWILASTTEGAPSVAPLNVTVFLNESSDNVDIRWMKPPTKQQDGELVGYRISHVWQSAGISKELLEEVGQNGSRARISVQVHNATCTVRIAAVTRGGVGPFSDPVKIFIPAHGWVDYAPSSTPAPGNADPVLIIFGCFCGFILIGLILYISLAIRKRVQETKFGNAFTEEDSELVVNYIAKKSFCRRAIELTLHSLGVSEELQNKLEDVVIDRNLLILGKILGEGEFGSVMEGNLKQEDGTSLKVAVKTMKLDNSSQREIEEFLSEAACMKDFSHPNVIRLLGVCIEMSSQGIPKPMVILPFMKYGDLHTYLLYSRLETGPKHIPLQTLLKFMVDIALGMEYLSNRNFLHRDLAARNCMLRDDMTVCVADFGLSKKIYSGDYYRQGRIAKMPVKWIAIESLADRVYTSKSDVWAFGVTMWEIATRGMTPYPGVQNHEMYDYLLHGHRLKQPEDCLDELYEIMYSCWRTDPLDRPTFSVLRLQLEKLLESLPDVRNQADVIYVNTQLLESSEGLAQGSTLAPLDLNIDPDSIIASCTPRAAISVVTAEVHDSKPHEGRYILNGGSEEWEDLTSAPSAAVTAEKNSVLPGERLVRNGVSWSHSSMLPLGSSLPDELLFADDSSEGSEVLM
# Assay: as above
row,Sequence,phosphorylation enrichment
1,VEKEKYVSYIS [JMJD1C_Y596_M591V],0.444
2,FQCKHYACIRQ [TIMP3_Y182_S179C_YF],0.414
3,SDPIIYTLENI [ADGRE1_Y534],1.43
4,KANEFYPVVLI [ADAMTS18_Y765_YF],0.451
5,PAVGIYNGNIN [CDCP1_Y707_D709G],0.574
6,KVGPGYLGSGG [RET_Y826],0.423
7,KYLENYYDLEK [MMP3_Y41_K45E],0.819
8,TENAGYFFRVS,0.369
9,EVESPYEVHDY [GIGYF2_Y1168],0.567
10,IVAREYFSKAD [CAMK2B_Y107_E110K_YF],0.358
11,QQLQGYIPSNY [FRK_Y99],0.475
12,NFFDLYGGEKF [PTPN11_Y66_D61N_YF],0.437
13,LLPNAYIFVVQ [L1CAM_Y418_A415P_YF],0.561
14,GRRNTCYASIA [ACADM_Y352_Y352C],0.407
15,WIPNQYPIISE [NOG_Y222_I220N],0.342
16,TISPYYRQSLF [CRYAA_Y48],0.468
17,EILLSDLRTGF [TGM1_Y365_Y365D_YF],0.378

row,Sequence,phosphorylation enrichment
1,PLCPDYQEPSR [DDR2_Y481_R478C],0.854
2,VLSIDYYFPPQ [AR_Y552_P549S],3.5
3,FSKTQYNQVPR [CXADR_Y318_S323R_YF],0.428
4,RAIELCNDKEK [OTULIN_Y244_Y244C],0.395
5,FFVVRYCWLRR [MPZ_Y181_YF],0.564
6,NLNGKCNKPRA [ANGPTL3_Y417_Y417C],0.44
7,IPGGIYNADLN [CST4_Y35_D36N],0.443
8,CTTIHYNYLCN [TP53_Y234_M237L],0.436
9,TYGQVYKGRHV [TNIK_Y40],0.942
10,SIKDKYVTALY [KCNH2_Y611],0.506
11,TPRNTYKMTSV [MKI67_Y849_L854V],0.445
12,ATVRPYRPFII [LRP5_Y1528_A1525V_YF],0.395
13,TPRNTYKMTSL [MKI67_Y849],0.428
14,QDGFSYPSRQM [LDLR_Y847_YF],0.415
15,RRESPYGGGGG [FUS_Y526_R524S],0.501
16,DLDLTSIFPNI [PTEN_Y27_Y27S_YF],0.447

# System: c-Abl (mouse)
# Assay: as above
row,Sequence,phosphorylation enrichment
1,VEKEKYVSYIS [JMJD1C_Y596_M591V],0.698
2,FQCKHYACIRQ [TIMP3_Y182_S179C_YF],0.634
3,SDPIIYTLENI [ADGRE1_Y534],0.653
4,KANEFYPVVLI [ADAMTS18_Y765_YF],0.68
5,PAVGIYNGNIN [CDCP1_Y707_D709G],1.08
6,KVGPGYLGSGG [RET_Y826],0.399
7,KYLENYYDLEK [MMP3_Y41_K45E],0.818
8,TENAGYFFRVS,1.15
9,EVESPYEVHDY [GIGYF2_Y1168],0.762
10,IVAREYFSKAD [CAMK2B_Y107_E110K_YF],0.448
11,QQLQGYIPSNY [FRK_Y99],0.47
12,NFFDLYGGEKF [PTPN11_Y66_D61N_YF],0.581
13,LLPNAYIFVVQ [L1CAM_Y418_A415P_YF],1.06
14,GRRNTCYASIA [ACADM_Y352_Y352C],0.5
15,WIPNQYPIISE [NOG_Y222_I220N],0.747
16,TISPYYRQSLF [CRYAA_Y48],0.617
17,EILLSDLRTGF [TGM1_Y365_Y365D_YF],0.631

row,Sequence,phosphorylation enrichment
1,PLCPDYQEPSR [DDR2_Y481_R478C],0.896
2,VLSIDYYFPPQ [AR_Y552_P549S],1.24
3,FSKTQYNQVPR [CXADR_Y318_S323R_YF],0.6
4,RAIELCNDKEK [OTULIN_Y244_Y244C],0.682
5,FFVVRYCWLRR [MPZ_Y181_YF],0.623
6,NLNGKCNKPRA [ANGPTL3_Y417_Y417C],0.388
7,IPGGIYNADLN [CST4_Y35_D36N],0.654
8,CTTIHYNYLCN [TP53_Y234_M237L],0.479
9,TYGQVYKGRHV [TNIK_Y40],0.711
10,SIKDKYVTALY [KCNH2_Y611],0.507
11,TPRNTYKMTSV [MKI67_Y849_L854V],0.584
12,ATVRPYRPFII [LRP5_Y1528_A1525V_YF],0.505
13,TPRNTYKMTSL [MKI67_Y849],0.496
14,QDGFSYPSRQM [LDLR_Y847_YF],0.621
15,RRESPYGGGGG [FUS_Y526_R524S],0.569
16,DLDLTSIFPNI [PTEN_Y27_Y27S_YF],0.677
